Series [1] concerns HeLa Kyoto. Nature of the series: solubility in G1/S (NP-40 vs SDS abundance) (log2 ratio); higher = more soluble. The following applies: cell cycle stage: G1/S.
Series [2] deals with HeLa Kyoto. In words: melting temperature (median over replicates), in situ; higher = more thermally stable.
Series [3] deals with HeLa Kyoto. Nature of the series: solubility change mitosis vs G1/S (difference of NP-40 vs SDS log2 ratios) (log2 ratio difference); higher = more soluble in mitosis.
For series [4], the system named is HeLa Kyoto. In words: thermal stability score vs G1/S (z-score of summed log2 fold changes over temperatures); higher = more thermally stable than in G1/S.
[5] abbreviates: cell cycle stage: early G1 (4.5 h after nocodazole release).
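For melting temperature (median over replicates), in situ in this document: HeLa Kyoto cells synchronized by double thymidine or nocodazole block, proteins quantified by TMT10plex mass spectrometry, three independent biological replicates.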
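For solubility change mitosis vs G1/S (difference of NP-40 vs SDS log2 ratios) in this document: synchronized HeLa Kyoto cells (double thymidine block for G1/S, nocodazole release for mitosis), protein amounts in NP-40 versus SDS lysates quantified by mass spectrometry, three biological replicates.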
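For solubility in G1/S (NP-40 vs SDS abundance) in this document: HeLa Kyoto cells arrested at G1/S by double thymidine block, proteins quantified by TMT10plex mass spectrometry in mild NP-40 versus SDS extracts, three biological replicates.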
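For thermal stability score vs G1/S (z-score of summed log2 fold changes over temperatures) in this document: synchronized HeLa Kyoto cells, proteins quantified by TMT10plex mass spectrometry, three biological replicates, mitosis taken 0.5 h after nocodazole release, G1/S directly after double thymidine block.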

Sequence of CBX3 (chain, as listed by the source): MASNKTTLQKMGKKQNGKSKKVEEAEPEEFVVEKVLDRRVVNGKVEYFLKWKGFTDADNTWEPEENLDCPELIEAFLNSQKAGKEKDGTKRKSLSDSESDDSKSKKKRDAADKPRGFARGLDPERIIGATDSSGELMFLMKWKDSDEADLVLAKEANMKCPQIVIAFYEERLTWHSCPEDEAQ

“MGRVVAELVSSLLGLWLLLCSCGCPEGAELRAPPDKIAIIGAGIGGTSAAYYLRQKFGKDVKIDLFEREEVGGRLATMMVQGQEYEAGGSVIHPLNLHMKRFVKDLGLSAVQASGGLLGIYNGETLVFEESNWFIINVIKLVWRYGFQSLRMHMWVEDVLDKFMRIYRYQSHDYAFSSVEKLLHALGGDDFLGMLNRTLLETLQKAGFSEKFLNEMIAPVMRVNYGQSTDINAFVGAVSLSCSDSGLWAVEGGNKLVCSGLLQASKSNLISGSVMYIEEKTKTKYTGNPTKMYEVVYQIGTETRSDFYDIVLVATPLNRKMSNITFLNFDPPIEEFHQYYQHIVTTLVKGELNTSIFSSRPIDKFGLNTVLTTDNSDLFINSIGIVPSVREKEDPEPSTDGTYVWKIFSQETLTKAQILKLFLSYDYAVKKPWLAYPHYKPPEKCPSIILHDRLYYLNGIECAASAMEMSAIAAHNAALLAYHRWNGHTDMIDQDGLYEKLKTEL [PCYOX1]”: in the series with HeLa Kyoto [1], the “solubility in G1/S (log2)” value came out at 0.102. Moreover, the figures for the melting temperature in the series on HeLa Kyoto [2] (cell cycle stage: G1/S) and in the series on HeLa Kyoto [2] (cell cycle stage: mitosis) were 56.6 °C and 57.1 °C, respectively. Moreover, the “solubility change mitosis (log2)” value with HeLa Kyoto [3] was -0.225. The results for the thermal stability score in the series on HeLa Kyoto [4] (setting [5]) and with HeLa Kyoto [4] (cell cycle stage: mitosis) were 1.46 and 0.959, respectively.
Regarding “MPKRKVTFQGVGDEEDEDEIIVPKKKLVDPVAGSGGPGSRFKGKHSLDSDEEEDDDDGGSSKYDILASEDVEGQEAATLPSEGGVRITPFNLQEEMEEGHFDADGNYFLNRDAQIRDSWLDNIDWVKIRERPPGQRQASDSEEEDSLGQTSMSAQALLEGLLELLLPRETVAGALRRLGARGGGKGRKGPGQPSSPQRLDRLSGLADQMVARGNLGVYQETRERLAMRLKGLGCQTLGPHNPTPPPSLDMFAEELAEEELETPTPTQRGEAESRGDGLVDVMWEYKWENTGDAELYGPFTSAQMQTWVSEGYFPDGVYCRKLDPPGGQFYNSKRIDFDLYT [CD2BP2]”, the “solubility in G1/S (log2)” value with HeLa Kyoto [1] stood at 0.00357. Moreover, the melting temperature with HeLa Kyoto [2] (cell cycle stage: G1/S) is 47.9 °C; in the series with HeLa Kyoto [2] (cell cycle stage: mitosis), 51.2 °C. For the same substance, in the series with HeLa Kyoto [3], the “solubility change mitosis (log2)” value worked out at 0.301. Further, the results for the thermal stability score with HeLa Kyoto [4] (setting [5]) and in the series on HeLa Kyoto [4] (cell cycle stage: mitosis) were 0.517 and 0.833, respectively.
As to ABCD1, in the series with HeLa Kyoto [1], the “solubility in G1/S (log2)” value is -0.353. Moreover, the figures for the melting temperature in the series with HeLa Kyoto [2] (cell cycle stage: G1/S) and with HeLa Kyoto [2] (cell cycle stage: mitosis) were 49.9 °C and 49.7 °C, respectively. In addition, in the series on HeLa Kyoto [3], the “solubility change mitosis (log2)” value is -0.0995. For the same substance, the thermal stability score was determined as 0.954 in the series on HeLa Kyoto [4] (setting [5]) and 0.963 in the series on HeLa Kyoto [4] (cell cycle stage: mitosis).
Take “MAYPGHPGAGGGYYPGGYGGAPGGPAFPGQTQDPLYGYFAAVAGQDGQIDADELQRCLTQSGIAGGYKPFNLETCRLMVSMLDRDMSGTMGFNEFKELWAVLNGWRQHFISFDTDRSGTVDPQELQKALTTMGFRLSPQAVNSIAKRYSTNGKITFDDYIACCVKLRALTDSFRRRDTAQQGVVNFPYDDFIQCVMSV [SRI]”: in the series with HeLa Kyoto [1], the “solubility in G1/S (log2)” value turned out to be 0.028. For the same substance, the melting temperature with HeLa Kyoto [2] (cell cycle stage: G1/S) is 52.8 °C; in the series with HeLa Kyoto [2] (cell cycle stage: mitosis) it was 52.2 °C. Moreover, in the series on HeLa Kyoto [3], the “solubility change mitosis (log2)” value amounted to 0.318. Besides, the values for the thermal stability score with HeLa Kyoto [4] (setting [5]) and in the series with HeLa Kyoto [4] (cell cycle stage: mitosis) were -2.31 and -2.35, respectively.
Take “MGDERPHYYGKHGTPQKYDPTFKGPIYNRGCTDIICCVFLLLAIVGYVAVGIIAWTHGDPRKVIYPTDSRGEFCGQKGTKNENKPYLFYFNIVKCASPLVLLEFQCPTPQICVEKCPDRYLTYLNARSSRDFEYYKQFCVPGFKNNKGVAEVLQDGDCPAVLIPSKPLARRCFPAIHAYKGVLMVGNETTYEDGHGSRKNITDLVEGAKKANGVLEARQLAMRIFEDYTVSWYWIIIGLVIAMAMSLLFIILLRFLAGIMVWVMIIMVILVLGYGIFHCYMEYSRLRGEAGSDVSLVDLGFQTDFRVYLHLRQTWLAFMIILSILEVIIILLLIFLRKRILIAIALIKEASRAVGYVMCSLLYPLVTFFLLCLCIAYWASTAVFLSTSNEAVYKIFDDSPCPFTAKTCNPETFPSSNESRQCPNARCQFAFYGGESGYHRALLGLQIFNAFMFFWLANFVLALGQVTLAGAFASYYWALRKPDDLPAFPLFSAFGRALRYHTGSLAFGALILAIVQIIRVILEYLDQRLKAAENKFAKCLMTCLKCCFWCLEKFIKFLNRNAYIMIAIYGTNFCTSARNAFFLLMRNIIRVAVLDKVTDFLFLLGKLLIVGSVGILAFFFFTHRIRIVQDTAPPLNYYWVPILTVIVGSYLIAHGFFSVYGMCVDTLFLCFLEDLERNDGSAERPYFMSSTLKKLLNKTNKKAAES [SLC44A2]”: in the series with HeLa Kyoto [1], the “solubility in G1/S (log2)” value amounted to 0.0147. For the same substance, the melting temperature amounted to 60.2 °C in the series with HeLa Kyoto [2] (cell cycle stage: G1/S) and 60.1 °C with HeLa Kyoto [2] (cell cycle stage: mitosis). Further, the “solubility change mitosis (log2)” value in the series on HeLa Kyoto [3] was 0.0871. Besides, the thermal stability score was -1.29 with HeLa Kyoto [4] (setting [5]) and -2.25 with HeLa Kyoto [4] (cell cycle stage: mitosis).
Regarding “MSDSKCDSQFYSVQVADSTFTVLKRYQQLKPIGSGAQGIVCAAFDTVLGINVAVKKLSRPFQNQTHAKRAYRELVLLKCVNHKNIISLLNVFTPQKTLEEFQDVYLVMELMDANLCQVIHMELDHERMSYLLYQMLCGIKHLHSAGIIHRDLKPSNIVVKSDCTLKILDFGLARTACTNFMMTPYVVTRYYRAPEVILGMGYKENVDIWSVGCIMGELVKGCVIFQGTDHIDQWNKVIEQLGTPSAEFMKKLQPTVRNYVENRPKYPGIKFEELFPDWIFPSESERDKIKTSQARDLLSKMLVIDPDKRISVDEALRHPYITVWYDPAEAEAPPPQIYDAQLEEREHAIEEWKELIYKEVMDWEERSKNGVVKDQPSDAAVSSNATPSQSSSINDISSMSTEQTLASDTDSSLDASTGPLEGCR [MAPK9]”, the “solubility in G1/S (log2)” value with HeLa Kyoto [1] was -0.0645. This substance also gave a melting temperature in the series with HeLa Kyoto [2] (cell cycle stage: G1/S) of 50.9 °C. The “solubility change mitosis (log2)” value with HeLa Kyoto [3] was -0.147. Besides, the values for the thermal stability score with HeLa Kyoto [4] (setting [5]) and in the series with HeLa Kyoto [4] (cell cycle stage: mitosis) were -0.633 and -0.772, respectively.
In the case of “MGEEDYYLELCERPVQFEKANPVNCVFFDEANKQVFAVRSGGATGVVVKGPDDRNPISFRMDDKGEVKCIKFSLENKILAVQRTSKTVDFCNFIPDNSQLEYTQECKTKNANILGFCWTSSTEIVFITDQGIEFYQVLPEKRSLKLLKSHNLNVNWYMYCPESAVILLSTTVLENVLQPFHFRAGTMSKLPKFEIELPAAPKSTKPSLSERDIAMATIYGQLYVLFLRHHSRTSNSTGAEVVLYHLPREGACKKMHILKLNRTGKFALNVVDNLVVVHHQDTETSVIFDIKLRGEFDGSVTFHHPVLPARSIQPYQIPITGPAAVTSQSPVPCKLYSSSWIVFQPDIIISASQGYLWNLQVKLEPIVNLLPDKGRLMDFLLQRKECKMVILSVCSQMLSESDRASLPVIATVFDKLNHEYKKYLDAEQSYAMAVEAGQSRSSPLLKRPVRTQAVLDQSDVYTHVLSAFVEKKEMPHKFVIAVLMEYIRSLNQFQIAVQHYLHELVIKTLVQHNLFYMLHQFLQYHVLSDSKPLACLLLSLESFYPPAHQLSLDMLKRLSTANDEIVEVLLSKHQVLAALRFIRGIGGHDNISARKFLDAAKQTEDNMLFYTIFRFFEQRNQRLRGSPNFTPGEHCEEHVAFFKQIFGDQALMRPTTF [C18ORF8]”, in the series with HeLa Kyoto [1], the “solubility in G1/S (log2)” value was -0.0478. Also, the melting temperature in the series on HeLa Kyoto [2] (cell cycle stage: G1/S) came out at 51.1 °C; in the series on HeLa Kyoto [2] (cell cycle stage: mitosis) it was 50.8 °C. Also, in the series with HeLa Kyoto [3], the “solubility change mitosis (log2)” value was -0.121. The thermal stability score with HeLa Kyoto [4] (setting [5]) stood at 0.23; with HeLa Kyoto [4] (cell cycle stage: mitosis) it was 0.326.
Take “MTSHYVIAIFALMSSCLATAGPEPGALCELSPVSASHPVQALMESFTVLSGCASRGTTGLPQEVHVLNLRTAGQGPGQLQREVTLHLNPISSVHIHHKSVVFLLNSPHPLVWHLKTERLATGVSRLFLVSEGSVVQFSSANFSLTAETEERNFPHGNEHLLNWARKEYGAVTSFTELKIARNIYIKVGEDQVFPPKCNIGKNFLSLNYLAEYLQPKAAEGCVMSSQPQNEEVHIIELITPNSNPYSAFQVDITIDIRPSQEDLEVVKNLILILKCKKSVNWVIKSFDVKGSLKIIAPNSIGFGKESERSMTMTKSIRDDIPSTQGNLVKWALDNGYSPITSYTMAPVANRFHLRLENNAEEMGDEEVHTIPPELRILLDPGALPALQNPPIRGGEGQNGGLPFPFPDISRRVWNEEGEDGLPRPKDPVIPSIQLFPGLREPEEVQGSVDIALSVKCDNEKMIVAVEKDSFQASGYSGMDVTLLDPTCKAKMNGTHFVLESPLNGCGTRPRWSALDGVVYYNSIVIQVPALGDSSGWPDGYEDLESGDNGFPGDMDEGDASLFTRPEIVVFNCSLQQVRNPSSFQEQPHGNITFNMELYNTDLFLVPSQGVFSVPENGHVYVEVSVTKAEQELGFAIQTCFISPYSNPDRMSHYTIIENICPKDESVKFYSPKRVHFPIPQADMDKKRFSFVFKPVFNTSLLFLQCELTLCTKMEKHPQKLPKCVPPDEACTSLDASIIWAMMQNKKTFTKPLAVIHHEAESKEKGPSMKEPNPISPPIFHGLDTLTVMGIAFAAFVIGALLTGALWYIYSHTGETAGRQQVPTSPPASENSSAAHSIGSTQSTPCSSSSTA [TGFBR3]”: in the series with HeLa Kyoto [1], the “solubility in G1/S (log2)” value is -0.155. Further, the melting temperature worked out at 53.8 °C with HeLa Kyoto [2] (cell cycle stage: G1/S) and 54.4 °C in the series on HeLa Kyoto [2] (cell cycle stage: mitosis). Moreover, the “solubility change mitosis (log2)” value in the series with HeLa Kyoto [3] was -0.094. In addition, the thermal stability score worked out at 1.1 in the series with HeLa Kyoto [4] (setting [5]) and 2.26 in the series with HeLa Kyoto [4] (cell cycle stage: mitosis).
As for CBX3, in the series on HeLa Kyoto [1], the “solubility in G1/S (log2)” value was -0.141. Besides, the melting temperature with HeLa Kyoto [2] (cell cycle stage: G1/S) stood at 49.9 °C; with HeLa Kyoto [2] (cell cycle stage: mitosis) it was 50.9 °C. In addition, the “solubility change mitosis (log2)” value with HeLa Kyoto [3] turned out to be 0.672. The thermal stability score came out at 0.789 in the series on HeLa Kyoto [4] (setting [5]) and 1.67 in the series on HeLa Kyoto [4] (cell cycle stage: mitosis).

For the origin of these results see the supplement of paper PMC5998384.
